Experimental data: PMC6310155

Molecular target: MmRIPK3 (S02-H303) kinase domain, N-terminal histidine tag (mouse)
Test: SEC

stoichiometry N: 2
Substance: MmRIPK3 (S02-H303) kinase domain, N-terminal histidine tag (domain or fragment)
